Measured values published in paper PMC13649712, “Role of PER-WDR5 interactions in the mammalian circadian clock” (Nature Communications, 2026).

Target: preformed PER1 1013-1291/WDR5 22-334 complex (mouse, UniProt O35973 1013-1291; P61965 22-334)
Experiment: SEC; PER1 1013-1291, CRY1 1-496 or CRY2 1-512 and WDR5 22-334: equimolar mixture (60 min, 4 °C) or PER1/WDR5 complex pre-formed overnight and then equimolar CRY added for 60 min; dimeric complexes run for comparison; S200 10/300; 25 mM HEPES pH 7.5, 300 mM NaCl, 5% glycerol, 1 mM DTT
Conditions: both partners purified

| Binder | binding result |
| --- | --- |
| mouse CRY1 1-496 (PHR) (domain or fragment, pCoofy27; tag-free after cleavage; also called CRY1-PHR) MGVNAVHWFRKGLRLHDNPALKECIQGADTIRCVYILDPWFAGSSNVGINRWRFLLQCLEDLDANLRKLNSRLFVIRGQPADVFPRLFKEWNITKLSIEYDSEPFGKERDAAIKKLATEAGVEVIVRISHTLYDLDKIIELNGGQPPLTYKRFQTLVSKMEPLEMPADTITSDVIGKCMTPLSDDHDEKYGVPSLEELGFDTDGLSSAVWPGGETEALTRLERHLERKAWVANFERPRMNANSLLASPTGLSPYLRFGCLSCRLFYFKLTDLYKKVKKNSSPPLSLYGQLLWREFFYTAATNNPRFDKMEGNPICVQIPWDKNPEALAKWAEGRTGFPWIDAIMTQLRQEGWIHHLARHAVACFLTRGDLWISWEEGMKVFEELLLDADWSINAGSWMWLSCSSFFQQFFHCYCPVGFGRRTDPNGDYIRRYLPVLRGFPAKYIYDPWNAPEGIQKVAKCLIGVNYPKPMVNHAEASRLNIERMKQIYQQLSRYRG | binds |
| mouse CRY2-PHR (1-512) (domain or fragment, Cryptochrome-2 (CRY2), mouse, photolyase homology region, residues 1-512; pCoofy27; tag-free after cleavage; also called CRY2 1-512) MAAAAVVAATVPAQSMGADGASSVHWFRKGLRLHDNPALLAAVRGARCVRCVYILDPWFAASSSVGINRWRFLLQSLEDLDTSLRKLNSRLFVVRGQPADVFPRLFKEWGVTRLTFEYDSEPFGKERDAAIMKMAKEAGVEVVTENSHTLYDLDRIIELNGQKPPLTYKRFQALISRMELPKKPAVAVSSQQMESCRAEIQENHDDTYGVPSLEELGFPTEGLGPAVWQGGETEALARLDKHLERKAWVANYERPRMNANSLLASPTGLSPYLRFGCLSCRLFYYRLWDLYKKVKRNSTPPLSLFGQLLWREFFYTAATNNPRFDRMEGNPICIQIPWDRNPEALAKWAEGKTGFPWIDAIMTQLRQEGWIHHLARHAVACFLTRGDLWVSWESGVRVFDELLLDADFSVNAGSWMWLSCSAFFQQFFHCYCPVGFGRRTDPSGDYIRRYLPKLKGFPSRYIYEPWNAPESVQKAAKCIIGVDYPRPIVNHAETSRLNIERMKQIYQQLSRY | binds |
